Data as given in PMC8170675, “Allostery through DNA drives phenotype switching”.

Legend:
[1] = target: T1, ComK (Bacillus subtilis, UniProt P40396); assay: smFRET; settings: amino-C6-dT/dA at dye sites, EMSA: 20 mM Tris pH 7.0, 50 mM L-Arg, 5 mM MgCl2, 150 mM KCl, 10 mM DTT, 0.001% Tween-20, 25 nM DNA, 20 min, smFRET: room temperature, 20 mM DTT
T1 sequence: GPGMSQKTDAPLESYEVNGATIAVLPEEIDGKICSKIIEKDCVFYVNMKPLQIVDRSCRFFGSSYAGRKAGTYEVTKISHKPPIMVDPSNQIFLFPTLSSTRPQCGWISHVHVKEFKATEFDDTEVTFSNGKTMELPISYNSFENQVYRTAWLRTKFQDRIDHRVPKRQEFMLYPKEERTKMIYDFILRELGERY

[2] = target: T1, ComK; assay: cryo-EM; 50 mM L-Arg; two ComK per box; EMSA: 20 mM Tris pH 7.0, 50 mM L-Arg, 5 mM MgCl2, 150 mM KCl, 10 mM DTT, 0.001% Tween-20, 25 nM DNA, 20 min; smFRET: room temperature, 50 mM L-Arg, 20 mM DTT; settings: protein: recombinant; tags: N-terminal His6-HRV3C tag removed; GPG remains at the N-terminus; chain copies: 4; blunt
[3] = target: T1, ComK; assay: smFRET; Hill n 4.34 ± 0.32; unit inferred; EMSA: 20 mM Tris pH 7.0, 50 mM L-Arg, 5 mM MgCl2, 150 mM KCl, 10 mM DTT, 0.001% Tween-20, 25 nM DNA, 20 min; smFRET: room temperature, 50 mM L-Arg, 20 mM DTT; settings: protein: recombinant; tags: N-terminal His6-HRV3C tag removed; GPG remains at the N-terminus; chain copies: 4; label: AlexaFluor 488 / AlexaFluor 594; blunt
[4] = target: T1, ComK; assay: smFRET; Hill n 2.28 ± 0.16; unit inferred; EMSA: 20 mM Tris pH 7.0, 50 mM L-Arg, 5 mM MgCl2, 150 mM KCl, 10 mM DTT, 0.001% Tween-20, 25 nM DNA, 20 min; smFRET: room temperature, 50 mM L-Arg, 20 mM DTT; settings: protein: recombinant; tags: N-terminal His6-HRV3C tag removed; GPG remains at the N-terminus; chain copies: 4; label: AlexaFluor 488 / AlexaFluor 594; blunt
[5] = target: T1, ComK; assay: smFRET; Hill n 3.55 ± 0.12; unit not in visible table header, inferred from fit parameters; EMSA: 20 mM Tris pH 7.0, 50 mM L-Arg, 5 mM MgCl2, 150 mM KCl, 10 mM DTT, 0.001% Tween-20, 25 nM DNA, 20 min; smFRET: room temperature, 50 mM L-Arg, 20 mM DTT; settings: protein: recombinant; tags: N-terminal His6-HRV3C tag removed; GPG remains at the N-terminus; chain copies: 4; label: AlexaFluor 488 / AlexaFluor 594; blunt
[6] = target: T1, ComK; assay: smFRET; Hill n 3.05 ± 0.08; unit inferred; EMSA: 20 mM Tris pH 7.0, 50 mM L-Arg, 5 mM MgCl2, 150 mM KCl, 10 mM DTT, 0.001% Tween-20, 25 nM DNA, 20 min; smFRET: room temperature, 50 mM L-Arg, 20 mM DTT; settings: protein: recombinant; tags: N-terminal His6-HRV3C tag removed; GPG remains at the N-terminus; chain copies: 4; label: AlexaFluor 488 / AlexaFluor 594; blunt
[7] = target: T1, ComK; assay: smFRET; Hill n 2.93 ± 0.28; unit inferred; EMSA: 20 mM Tris pH 7.0, 50 mM L-Arg, 5 mM MgCl2, 150 mM KCl, 10 mM DTT, 0.001% Tween-20, 25 nM DNA, 20 min; smFRET: room temperature, 50 mM L-Arg, 20 mM DTT; settings: protein: recombinant; tags: N-terminal His6-HRV3C tag removed; GPG remains at the N-terminus; chain copies: 4; label: AlexaFluor 488 / AlexaFluor 594; blunt ends, internal mismatches in spacer
[8] = target: T2, ΔCys ComK (Bacillus subtilis, UniProt P40396 1-192, C31A;C39A;C55A;C102A); assay: smFRET; 30 pM DNA, 100 nM protein; EMSA: 20 mM Tris pH 7.0, 50 mM L-Arg, 5 mM MgCl2, 150 mM KCl, 10 mM DTT, 0.001% Tween-20, 25 nM DNA, 20 min; smFRET: room temperature, 50 mM L-Arg, 20 mM DTT; settings: protein: recombinant; chain copies: 4; label: AlexaFluor 488 / AlexaFluor 594; blunt
T2 sequence: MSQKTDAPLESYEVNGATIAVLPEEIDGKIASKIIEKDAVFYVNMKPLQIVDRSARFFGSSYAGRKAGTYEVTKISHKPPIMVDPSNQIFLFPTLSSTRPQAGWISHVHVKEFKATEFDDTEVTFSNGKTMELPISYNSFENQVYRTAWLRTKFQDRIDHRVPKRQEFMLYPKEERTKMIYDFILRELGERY

[9] = target: T1, ComK; assay: smFRET; Hill n 3.44 ± 0.27; unit inferred; EMSA: 20 mM Tris pH 7.0, 50 mM L-Arg, 5 mM MgCl2, 150 mM KCl, 10 mM DTT, 0.001% Tween-20, 25 nM DNA, 20 min; smFRET: room temperature, 50 mM L-Arg, 20 mM DTT; settings: protein: recombinant; tags: N-terminal His6-HRV3C tag removed; GPG remains at the N-terminus; chain copies: 4; label: AlexaFluor 488 / AlexaFluor 594; blunt
[10] = target: T1, ComK; assay: smFRET; Hill n 2.97 ± 0.28; unit inferred; EMSA: 20 mM Tris pH 7.0, 50 mM L-Arg, 5 mM MgCl2, 150 mM KCl, 10 mM DTT, 0.001% Tween-20, 25 nM DNA, 20 min; smFRET: room temperature, 50 mM L-Arg, 20 mM DTT; settings: protein: recombinant; tags: N-terminal His6-HRV3C tag removed; GPG remains at the N-terminus; chain copies: 4; label: AlexaFluor 488 / AlexaFluor 594; blunt

## comG: isolated box 2 labelled
[1]; Hill n 1.59 ± 0.09, unit inferred
  K half: 48 nM

## comG: isolated box 1 labelled
[1]; Hill n 1.76 ± 0.02, unit inferred
  K half: 73 nM

B1: addAB unlabelled (dsDNA)
DNA 1: GATGTGCGGAGATAATCAGCTTTTTATATGTGAAAAGGCCGTTTTTACCAATAGATC
DNA 2: GATCTATTGGTAAAAACGGCCTTTTCACATATAAAAAGCTGATTATCTCCGCACATC
[2]
  binding result: binds

B2: addAB1: box 1 labelled (dsDNA)
DNA 1: GATGTGCGGAGATAATCAGCTTTTTATATGTGAAAAGGCCGTTTTTACCAATAGATC
DNA 2: GATCTATTGGTAAAAACGGCCTTTTCACATATAAAAAGCTGATTATCTCCGCACATC
modifications: amino-C6-dT/dA at dye sites
[3]
  apparent K (half saturation): 25 ± 6 nM

B3: comK: box 1 labelled (dsDNA)
DNA 1: CTTATGAAAGTAAAATCGGTTTATTACTAGTCATTTAGTACCATTAAATATCATTAAAAGATGATTTTATCTTAAATG
DNA 2: CATTTAAGATAAAATCATCTTTTAATGATATTTAATGGTACTAAATGACTAGTAATAAACCGATTTTACTTTCATAAG
modifications: amino-C6-dT/dA at dye sites
[4]
  apparent K (half saturation): 21 ± 2 nM

B4: comG: box 1 labelled (dsDNA)
DNA 1: CAGTTGAAAGTCTTTTTTCTTGCCAGAAAGAATTGGTTTTTCAGCATATAACATCTCACAAAATCACGTTTTCCCTGTTTGATTACCTTTTCT
DNA 2: AGAAAAGGTAATCAAACAGGGAAAACGTGATTTTGTGAGATGTTATATGCTGAAAAACCAATTCTTTCTGGCAAGAAAAAAGACTTTCAACTG
modifications: amino-C6-dT/dA at dye sites
[5]
  apparent K (half saturation): 15 ± 1 nM

B5: comG GC-72%: box 1 labelled (dsDNA)
DNA 1: CAGTTGAAAGTCTTTTTTCTTGCCAGAAAGAATTGGTTTTTCGGCCGCTAACGGCTCACAAAATCACGTTTTCCCTGTTTGATTACCTTTTCT
DNA 2: AGAAAAGGTAATCAAACAGGGAAAACGTGATTTTGTGAGCCGTTAGCGGCCGAAAAACCAATTCTTTCTGGCAAGAAAAAAGACTTTCAACTG
modifications: amino-C6-dT/dA at dye sites
[6]
  apparent K (half saturation): 17 ± 1 nM

B6: comG Mismatch: box 1 labelled (dsDNA)
DNA 1: CAGTTGAAAGTCTTTTTTCTTGCCAGAAAGAATTGGTTTTTCAGCAATATACATCTCACAAAATCACGTTTTCCCTGTTTGATTACCTTTTCT
DNA 2: AGAAAAGGTAATCAAACAGGGAAAACGTGATTTTGTGAGATGTTATATGCTGAAAAACCAATTCTTTCTGGCAAGAAAAAAGACTTTCAACTG
modifications: amino-C6-dT/dA at dye sites
[7]
  apparent K (half saturation): 14 ± 1 nM

B7: comG unlabelled (dsDNA)
DNA 1: CAGTTGAAAGTCTTTTTTCTTGCCAGAAAGAATTGGTTTTTCAGCATATAACATCTCACAAAATCACGTTTTCCCTGTTTGATTACCTTTTCT
DNA 2: AGAAAAGGTAATCAAACAGGGAAAACGTGATTTTGTGAGATGTTATATGCTGAAAAACCAATTCTTTCTGGCAAGAAAAAAGACTTTCAACTG
[2]
  binding result: binds

B8: comG: box 2 labelled (dsDNA)
DNA 1: CAGTTGAAAGTCTTTTTTCTTGCCAGAAAGAATTGGTTTTTCAGCATATAACATCTCACAAAATCACGTTTTCCCTGTTTGATTACCTTTTCT
DNA 2: AGAAAAGGTAATCAAACAGGGAAAACGTGATTTTGTGAGATGTTATATGCTGAAAAACCAATTCTTTCTGGCAAGAAAAAAGACTTTCAACTG
modifications: amino-C6-dT/dA at dye sites
[8]
  binding result: no binding
[9]
  apparent K (half saturation): 16 ± 1 nM

B9: comG GC-55%: box 1 labelled (dsDNA)
DNA 1: CAGTTGAAAGTCTTTTTTCTTGCCAGAAAGAATTGGTTTTTCAGCAGCTAACAGCTCACAAAATCACGTTTTCCCTGTTTGATTACCTTTTCT
DNA 2: AGAAAAGGTAATCAAACAGGGAAAACGTGATTTTGTGAGCTGTTAGCTGCTGAAAAACCAATTCTTTCTGGCAAGAAAAAAGACTTTCAACTG
modifications: amino-C6-dT/dA at dye sites
[10]
  apparent K (half saturation): 16 ± 1 nM
